Data on one substance can be found in patent US20220168434A1, “APPLICATION OF TRANSTHYRETIN IN ENTERING EYE AND PREPARING DROP” (YIZHOU (SHANGHAI) BIOLOGICAL MEDICINE CO, LTD., priority 2019, published 2022).

A short description of data set [1]: Protein content in vitreous body during two weeks of eye dropping (ELISA, anti-His tag antibody). The format is in vivo, SD rats (Rattus norregicus). Particulars: SD rats; protein not fused with TTR. On the procedure:
(§1) The purified TTR protein (at a concentration of 4 μmol/L) prepared in Example 1 after removal of endotoxin and bacteria was subject to treating healthy SD rats (Rattus norregicus) (6 weeks old) and New Zealand big-eared rabbits (Oryctolagus cuniculus) (2 months old, about 2.5 kg) by means of eye dropping, the left eye was the sample eye dropped with the protein, and the right eye was the blank control eye dropped with saline. The protein was administered 1-3 times per day at a dosage of 0.4-0.8 nmol. Two weeks later, the eyeball was removed and separated to obtain the vitreous body sample. It was preliminarily verified by western-blot method (FIG. 7A) that TTR can enter the vitreous cavity from the ocular surface.
(§2) The purified TTR-GFP protein (at a concentration of 4 μmol/L) prepared in Example 2 after removal of endotoxin and bacteria was subject to treating healthy SD rats (Rattus norregicus) (6 weeks old) and New Zealand big-eared rabbits (Oryctolagus cuniculus) (2 months old, about 2.5 kg) by means of eye dropping, the left eye was the sample eye dropped with the protein, and the right eye was the blank control eye dropped with saline. The protein was administered 1-3 times per day at a dosage of 0.4-0.8 nmol. […] The content of TTR-GFP in the vitreous body sample was determined by ELISA with the anti-His tag antibody as the primary antibody (Table 10 and 11). […]
(In general: An ELISA detects its analyte on a solid surface through an enzyme-linked reagent.)

Experiment in data set [2]: as above
The data set is classed as in vivo, New Zealand big-eared rabbits (Oryctolagus cuniculus). As to conditions: New Zealand big-ear rabbits; protein not fused with TTR. How it is done: as §1, §2

Turning to “Lysozyme: Lysozyme protein (Genbank Accession No.: AAL69327.1) not fused with TTR”, the “entering the vitreous body after eye dropping (in words)” value in data set [1] and in data set [2] was “did not enter” each time.
